Results published in US20250353912A1 (NEW YORK UNIVERSITY, published 2025).

B1: P2AMR-1 in the human IgG1 format (antibody, V domains shown)
VH: QVQLVQSEPEVKKPGSSVKLSCKASGGTFSTDAITWVRQAPGQGLEYMGGIIPLLDSVDYAQRFQGRVTVSADKSTGTAYMEVRSLGSEDTAKYYCAKWSSVDTGLDYWGQGTLVTVSS
VL: QSVLIQPRSVSGSPGQSVTISCTGTSSDVGGYNYVSWYQQHPGKAPKLMIYDVSKRPSGVPDRFSGSKSGNTASLTVSGLQAEDEADYYCGSYADTDTIVFGTGTKLTVL
notes: human IgG1; also called P2AMR-1 IgG
B2: OEA2-21 (antibody, V domains shown)
VH: EVQLVESGGGLVQPGGSLRLSCAASGFTFSSSYIHWVRQAPGKGLEWVASISPSYGYTSYADSVKGRFTISADTSKNTAYLQMNSLRAEDTAVYYCARDMYEWWHWAIDYWGQGTLVTVSS
VL: DIQMTQSPSSLSASVGDRVTITCRASQSVSSAVAWYQQKPGKAPKLLIYSASSLYSGVPSRFSGSRSGTDFTLTISSLQPEDFATYYCQQSSWGGLVTFGQGTKVEIKR
notes: phage-display clone
B3: OEA2-12 (antibody, V domains shown)
VH: EVQLVESGGGLVQPGGSLRLSCAASGFTIYSSSIHWVRQAPGKGLEWVASISSYYGYTSYADSVKGRFTISADTSKNTAYLQMNSLRAEDTAVYYCARYQYYGSLYYSQQWAMDYWGQGTLVTVSS
VL: DIQMTQSPSSLSASVGDRVTITCRASQSVSSAVAWYQQKPGKAPKLLIYSASSLYSGVPSRFSGSRSGTDFTLTISSLQPEDFATYYCQQYDWNYYLVTFGQGTKVEIKR
notes: phage-display clone
B4: AMRA3-18 (antibody, human IgG1, V domains shown)
VH: EVQLVESGGGLVQPGGSLRLSCAASGFTVSYSSIHWVRQAPGKGLEWVASISSSSGYTSYADSVKGRFTISADTSKNTAYLQMNSLRAEDTAVYYCARYAWWAHGLDYWGQGTLVTVSS
VL: DIQMTQSPSSLSASVGDRVTITCRASQSVSSAVAWYQQKPGKAPKLLIYSASSLYSGVPSRFSGSRSGTDFTLTISSLQPEDFATYYCQQGSYTYRLITFGQGTKVEIKR
notes: phage-display clone; purified as human IgG1/kappa; also called AMRA3-18 hIgG1
B5: AMRA3-7 (antibody, human IgG1, V domains shown)
VH: EVQLVESGGGLVQPGGSLRLSCAASGFTFSSYSIHWVRQAPGKGLEWVASIYSSYGYTSYADSVKGRFTISADTSKNTAYLQMNSLRAEDTAVYYCARGGWYPAMDYWGQGTLVTVSS
VL: DIQMTQSPSSLSASVGDRVTITCRASQSVSSAVAWYQQKPGKAPKLLIYSASSLYSGVPSRFSGSRSGTDFTLTISSLQPEDFATYYCQQISYVYSLITFGQGTKVEIKR
notes: phage-display clone; purified as human IgG1/kappa; also called AMRA3-7 hIgG1
B6: OEA2-1 (antibody, V domains shown)
VH: EVQLVESGGGLVQPGGSLRLSCAASGFTFSSSSIHWVRQAPGKGLEWVASISSSSGSTSYADSVKGRFTISADTSKNTAYLQMNSLRAEDTAVYYCARYYGYVWGGYWGWWYSKALDYWGQGTLVTVSS
VL: DIQMTQSPSSLSASVGDRVTITCRASQSVSSAVAWYQQKPGKAPKLLIYSASSLYSGVPSRFSGSRSGTDFTLTISSLQPEDFATYYCQQSSSSLITFGQGTKVEIKR
notes: phage-display clone
B7: AMRA311-17 (antibody, human IgG1, V domains shown)
VH: EVQLVESGGGLVQPGGSLRLSCAASGFTISSSSIHWVRQAPGKGLEWVASISSYSGSTYYADSVKGRFTISADTSKNTAYLQMNSLRAEDTAVYYCARYPYGSHVYTGLDYWGQGTLVTVSS
VL: DIQMTQSPSSLSASVGDRVTITCRASQSVSSAVAWYQQKPGKAPKLLIYSASSLYSGVPSRFSGSRSGTDFTLTISSLQPEDFATYYCQQSSSSLITFGQGTKVEIKR
notes: phage-display clone; purified as human IgG1/kappa; also called AMRA311-17 hIgG1
B8: OEA2-16 (antibody, V domains shown)
VH: EVQLVESGGGLVQPGGSLRLSCAASGFTFSSSSIHWVRQAPGKGLEWVASISSSSGSTSYADSVKGRFTISADTSKNTAYLQMNSLRAEDTAVYYCARSPSSPYFMSWGWYWQYGIDYWGQGTLVTVSS
VL: DIQMTQSPSSLSASVGDRVTITCRASQSVSSAVAWYQQKPGKAPKLLIYSASSLYSGVPSRFSGSRSGTDFTLTISSLQPEDFATYYCQQSSSSLITFGQGTKVEIKR
notes: phage-display clone

Legend:
[1] = target: T1, HLA-A*03:01 in complex with the KRAS (wild type) peptide … (human); test: flow cytometry on peptide-loaded Raji cells (FIG. 16)
T1 construct: also called HLA-A*03:01_WTRAS

[2] = target: T2, HLA-A*02:01 in complex with the EGFR peptide … conjugated with osimertinib (human, osimertinib covalently bound to Cys); test: phage display selection; MBBA
T2 construct: also called HLA-A*02:01_EGFR-osimertinib; osimertinib-EGFR/HLA-A*02

[3] = target: T1, HLA-A*03:01 in complex with the KRAS …; test: MBBA titration of purified IgG (FIG. 11)
[4] = target: T3, HLA-A*11:01 in complex with the KRAS (wild type) peptide … (human); test: MBBA titration of purified IgG (FIG. 11)
T3 construct: also called HLA-A*11:01_WTRAS

Binder	binding result [2]	binding result [3]	binding result [4]	other results
B1	–	–	–	binding result [1]: no binding
B2	binds	–	–	–
B3	binds	–	–	–
B4	–	no binding	no binding	–
B5	–	no binding	no binding	–
B6	binds	–	–	–
B7	–	no binding	no binding	–
B8	binds	–	–	–
